pKd: −log10 of the molar value. “And” between values parts separate entries of the source, which are not always exact repeats. Equal values may be shown once.
Key:
[1] = molecular target: p130Cas (Y664) (Homo sapiens) (UniProt P56945); conditions: cited from earlier work
[2] = molecular target: FGFR1 (Y463) phosphopeptide GVSEpYELPEDP, Rhodamine B-labelled; assay: fluorescence polarisation; Rhodamine B-labelled peptide in solution with SH2 domain; Beacon 2000; as previously described [40]
[3] = molecular target: FGFR3 (Y760) phosphopeptide STDEpYLDLSAP, Rhodamine B-labelled; assay: as above
[4] = molecular target: p62DOK1 (Y398) phosphopeptide KEEGpYELPYNP, Rhodamine B-labelled; assay: as above
[5] = molecular target: IRS-1 (Y896) phosphopeptide SPGEpYVNIEFG, Rhodamine B-labelled; assay: as above
[6] = molecular target: IRS-1 (Y1179) phosphopeptide NGLNpYIDLDLV, Rhodamine B-labelled; assay: as above
[7] = molecular target: CD150 (Y142) (Homo sapiens) (UniProt P20963); conditions: cited from earlier work
Sequence of CD150 (Y142) (Homo sapiens) (P20963 whole entry, looked up): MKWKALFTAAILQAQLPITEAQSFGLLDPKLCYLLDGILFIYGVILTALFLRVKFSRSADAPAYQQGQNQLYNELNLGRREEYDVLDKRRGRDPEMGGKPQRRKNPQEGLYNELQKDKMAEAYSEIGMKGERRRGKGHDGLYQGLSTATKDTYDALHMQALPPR

[8] = molecular target: B3AT (Y921) (Homo sapiens) (UniProt P02730); conditions: cited from earlier work
[9] = molecular target: PDGFRb (Y1021) (Homo sapiens) (UniProt P09619); conditions: cited from earlier work
Sequence of PDGFRb (Y1021) (Homo sapiens) (P09619 whole entry, looked up): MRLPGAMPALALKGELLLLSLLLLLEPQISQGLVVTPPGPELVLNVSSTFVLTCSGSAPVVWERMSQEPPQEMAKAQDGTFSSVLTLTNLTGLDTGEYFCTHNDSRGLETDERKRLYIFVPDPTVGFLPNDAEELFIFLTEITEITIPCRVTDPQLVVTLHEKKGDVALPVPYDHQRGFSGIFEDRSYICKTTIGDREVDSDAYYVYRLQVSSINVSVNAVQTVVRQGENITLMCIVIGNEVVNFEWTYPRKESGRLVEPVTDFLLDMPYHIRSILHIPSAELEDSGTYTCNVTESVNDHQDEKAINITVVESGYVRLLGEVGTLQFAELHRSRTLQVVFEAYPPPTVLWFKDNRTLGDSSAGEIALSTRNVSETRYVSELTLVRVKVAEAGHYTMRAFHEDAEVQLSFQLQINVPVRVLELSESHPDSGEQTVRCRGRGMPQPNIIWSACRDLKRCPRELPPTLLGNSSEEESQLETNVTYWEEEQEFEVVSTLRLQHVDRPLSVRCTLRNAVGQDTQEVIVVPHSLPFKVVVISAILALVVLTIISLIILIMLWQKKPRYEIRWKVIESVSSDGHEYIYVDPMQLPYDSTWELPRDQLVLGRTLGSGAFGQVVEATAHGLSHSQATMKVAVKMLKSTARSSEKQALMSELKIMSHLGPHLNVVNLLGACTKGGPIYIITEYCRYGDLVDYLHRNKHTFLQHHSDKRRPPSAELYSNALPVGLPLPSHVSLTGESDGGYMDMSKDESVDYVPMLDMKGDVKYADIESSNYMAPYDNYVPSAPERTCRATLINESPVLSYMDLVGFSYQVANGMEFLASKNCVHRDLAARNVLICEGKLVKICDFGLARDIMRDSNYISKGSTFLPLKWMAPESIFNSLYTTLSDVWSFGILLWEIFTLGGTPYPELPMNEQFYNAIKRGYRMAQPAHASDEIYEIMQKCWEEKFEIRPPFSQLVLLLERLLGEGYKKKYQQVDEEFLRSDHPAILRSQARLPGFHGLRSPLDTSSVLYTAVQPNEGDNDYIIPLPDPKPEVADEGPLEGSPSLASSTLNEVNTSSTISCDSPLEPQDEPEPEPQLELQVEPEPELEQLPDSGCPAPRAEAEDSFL

[10] = molecular target: ShcA (Y426) (Homo sapiens) (UniProt P29353); conditions: cited from earlier work
Sequence of ShcA (Y426) (Homo sapiens) (P29353 whole entry, looked up): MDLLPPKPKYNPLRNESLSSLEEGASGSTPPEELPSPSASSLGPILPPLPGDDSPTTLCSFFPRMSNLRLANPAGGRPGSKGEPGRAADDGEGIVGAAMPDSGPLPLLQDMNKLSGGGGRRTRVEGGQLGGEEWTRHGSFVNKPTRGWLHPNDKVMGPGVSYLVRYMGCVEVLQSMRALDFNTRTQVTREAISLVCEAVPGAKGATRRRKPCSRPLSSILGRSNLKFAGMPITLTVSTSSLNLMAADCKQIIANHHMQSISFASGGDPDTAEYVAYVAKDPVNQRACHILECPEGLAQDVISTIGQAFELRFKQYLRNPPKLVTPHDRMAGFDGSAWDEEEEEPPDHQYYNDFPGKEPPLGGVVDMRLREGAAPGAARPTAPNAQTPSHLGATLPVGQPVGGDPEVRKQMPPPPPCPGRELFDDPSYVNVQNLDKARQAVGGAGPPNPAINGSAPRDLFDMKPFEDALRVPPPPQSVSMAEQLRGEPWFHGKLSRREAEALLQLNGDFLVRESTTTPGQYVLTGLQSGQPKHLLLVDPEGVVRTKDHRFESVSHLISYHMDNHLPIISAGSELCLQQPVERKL

IRS-1 (Homo sapiens) = IRS-1 (Homo sapiens) (UniProt P35568); conditions: cited from earlier work
Sequence of IRS-1 (Homo sapiens) (P35568 whole entry): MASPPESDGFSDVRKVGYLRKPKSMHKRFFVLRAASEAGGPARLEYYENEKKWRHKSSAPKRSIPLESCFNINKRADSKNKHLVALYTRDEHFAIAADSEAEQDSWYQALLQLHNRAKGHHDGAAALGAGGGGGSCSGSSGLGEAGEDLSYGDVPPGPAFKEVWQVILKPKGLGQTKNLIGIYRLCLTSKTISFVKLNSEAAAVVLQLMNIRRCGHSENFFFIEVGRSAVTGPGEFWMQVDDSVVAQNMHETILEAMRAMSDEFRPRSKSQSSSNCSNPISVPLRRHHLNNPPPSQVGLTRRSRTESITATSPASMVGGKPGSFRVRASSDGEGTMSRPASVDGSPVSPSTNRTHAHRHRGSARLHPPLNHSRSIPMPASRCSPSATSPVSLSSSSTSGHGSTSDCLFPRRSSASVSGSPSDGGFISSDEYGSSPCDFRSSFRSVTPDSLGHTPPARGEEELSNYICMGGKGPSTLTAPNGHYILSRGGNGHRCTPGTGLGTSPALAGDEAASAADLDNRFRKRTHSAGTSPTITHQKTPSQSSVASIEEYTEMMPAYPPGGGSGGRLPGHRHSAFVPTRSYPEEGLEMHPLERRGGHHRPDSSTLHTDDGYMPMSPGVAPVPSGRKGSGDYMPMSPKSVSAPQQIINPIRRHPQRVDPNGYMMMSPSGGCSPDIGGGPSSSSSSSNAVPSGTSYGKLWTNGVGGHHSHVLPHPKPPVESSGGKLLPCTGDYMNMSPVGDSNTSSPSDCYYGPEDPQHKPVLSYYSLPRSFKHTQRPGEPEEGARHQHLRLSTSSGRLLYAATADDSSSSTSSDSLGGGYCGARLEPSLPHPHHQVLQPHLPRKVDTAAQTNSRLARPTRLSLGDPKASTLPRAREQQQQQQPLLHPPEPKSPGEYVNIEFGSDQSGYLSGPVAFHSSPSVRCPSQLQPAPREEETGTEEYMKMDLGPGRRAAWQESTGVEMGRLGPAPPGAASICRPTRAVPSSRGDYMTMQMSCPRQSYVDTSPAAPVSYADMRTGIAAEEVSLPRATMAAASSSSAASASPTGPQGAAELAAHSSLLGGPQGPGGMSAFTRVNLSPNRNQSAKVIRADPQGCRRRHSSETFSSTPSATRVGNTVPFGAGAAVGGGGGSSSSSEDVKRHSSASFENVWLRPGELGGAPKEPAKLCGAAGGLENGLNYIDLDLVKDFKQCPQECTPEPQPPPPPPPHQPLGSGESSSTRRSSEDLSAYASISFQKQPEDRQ

[11] = molecular target: IRS-1 (Y896) (Homo sapiens) (UniProt P35568); conditions: cited from earlier work
Sequence of IRS-1 (Y896) (Homo sapiens) (P35568 whole entry, looked up): as the sequence (P35568 whole entry) above

[12] = molecular target: IRS-1 (Y1012) (Homo sapiens) (UniProt P35568); conditions: cited from earlier work
Sequence of IRS-1 (Y1012) (Homo sapiens) (P35568 whole entry, looked up): as the sequence (P35568 whole entry) above

[13] = molecular target: p130Cas (Y362) (Homo sapiens) (UniProt P56945); conditions: cited from earlier work
Sequence of p130Cas (Y362) (Homo sapiens) (P56945 whole entry, looked up): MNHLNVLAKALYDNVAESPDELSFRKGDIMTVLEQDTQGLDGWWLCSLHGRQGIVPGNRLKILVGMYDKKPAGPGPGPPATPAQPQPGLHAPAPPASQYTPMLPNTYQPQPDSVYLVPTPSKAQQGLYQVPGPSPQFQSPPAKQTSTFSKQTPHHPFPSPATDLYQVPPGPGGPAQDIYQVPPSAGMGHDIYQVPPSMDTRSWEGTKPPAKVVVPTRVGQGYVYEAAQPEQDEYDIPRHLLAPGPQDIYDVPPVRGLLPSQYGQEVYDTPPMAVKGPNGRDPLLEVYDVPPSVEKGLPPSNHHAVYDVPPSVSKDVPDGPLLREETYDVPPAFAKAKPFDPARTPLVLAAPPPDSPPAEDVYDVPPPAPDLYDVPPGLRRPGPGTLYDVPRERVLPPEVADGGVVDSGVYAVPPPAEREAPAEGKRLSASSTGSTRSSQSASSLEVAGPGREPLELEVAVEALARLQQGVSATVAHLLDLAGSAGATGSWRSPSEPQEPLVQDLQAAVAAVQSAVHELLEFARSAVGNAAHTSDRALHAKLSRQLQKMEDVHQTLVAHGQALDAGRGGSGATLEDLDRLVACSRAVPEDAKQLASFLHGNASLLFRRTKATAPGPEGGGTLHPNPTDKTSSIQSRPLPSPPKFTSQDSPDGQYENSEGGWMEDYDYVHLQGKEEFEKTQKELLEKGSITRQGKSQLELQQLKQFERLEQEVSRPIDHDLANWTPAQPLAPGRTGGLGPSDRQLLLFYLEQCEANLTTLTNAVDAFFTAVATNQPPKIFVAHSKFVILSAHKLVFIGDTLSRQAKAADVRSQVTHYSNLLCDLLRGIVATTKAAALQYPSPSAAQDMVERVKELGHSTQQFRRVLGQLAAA

[14] = molecular target: IRS-1 (Y1179) (Homo sapiens) (UniProt P35568); conditions: cited from earlier work
Sequence of IRS-1 (Y1179) (Homo sapiens) (P35568 whole entry, looked up, the tested form may be a part): as the sequence (P35568 whole entry) above

[15] = molecular target: p130Cas (Y362) phosphopeptide AEDVpYDVPPPA, Rhodamine B-labelled; assay: fluorescence polarisation; Rhodamine B-labelled peptide in solution with SH2 domain; Beacon 2000; as previously described [40]

Sequence of Grb2 SH2 (P62993 57-155): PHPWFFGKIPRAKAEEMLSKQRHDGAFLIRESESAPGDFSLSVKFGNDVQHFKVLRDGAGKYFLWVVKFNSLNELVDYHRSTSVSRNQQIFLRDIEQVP
Sequence of p130Cas (Y664) (Homo sapiens) (P56945 whole entry, looked up, the tested form may be a part): as the sequence (P56945 whole entry, looked up) above
Sequence of Shc1 SH2 (P29353 485-582): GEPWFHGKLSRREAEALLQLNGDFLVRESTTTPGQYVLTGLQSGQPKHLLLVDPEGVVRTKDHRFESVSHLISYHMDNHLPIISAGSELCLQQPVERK
Sequence of Plcγ-C SH2 (C-terminal) (P19174 668-756): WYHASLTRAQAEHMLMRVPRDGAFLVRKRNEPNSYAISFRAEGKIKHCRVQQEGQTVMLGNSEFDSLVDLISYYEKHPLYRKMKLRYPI
Sequence of Crk SH2 (P46108 10-121): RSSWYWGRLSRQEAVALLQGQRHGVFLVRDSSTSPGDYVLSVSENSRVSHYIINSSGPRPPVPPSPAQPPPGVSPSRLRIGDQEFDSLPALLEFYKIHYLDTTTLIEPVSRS

Substance: Src SH2 (from UniProt P12931)
- pKd [1]: 7.46

Substance: GST-Rasa1_C SH2 domain (domain or fragment)
- pKd [2]: < 4.77
- pKd [3]: < 4.77
- pKd [4]: 5.86

Substance: GST-PI3K1_N SH2 domain (domain or fragment)
- pKd [4]: 5.73
- pKd [5]: 5.57
- pKd [6]: 4.82

Substance: Shc1 SH2 (from UniProt P29353)
- pKd [7]: 4.30

Substance: GST-PI3K1_C SH2 domain (domain or fragment)
- pKd [3]: 5.67
- pKd [4]: 4.89

Substance: Nck1 SH2 (from UniProt P16333)
- pKd [8]: 7.22

Substance: Plcγ-C SH2 (C-terminal) (from UniProt P19174)
- pKd [9]: 5.39

Substance: Grb2 SH2 (from UniProt P62993)
- pKd [10]: 7.64 and 7.28
- pKd (IRS-1 (Homo sapiens)): 7.46
- pKd [11]: 7.46

Substance: Ptpn11_N SH2 (N-terminal) (from UniProt Q06124)
- pKd [12]: 3.96

Substance: GST-Rasa1_N SH2 domain (domain or fragment)
- pKd [4]: 6.39

Substance: Crk SH2 (from UniProt P46108)
- pKd [13]: 6.26

Substance: Ptpn11 tandem SH2 tandem SH2 (from UniProt Q06124)
- pKd [14]: 8.52

Substance: GST-Ptpn11_N SH2 domain (domain or fragment)
- pKd [3]: 4.60
- pKd [4]: < 4.30
- pKd [15]: < 4.30
- pKd [5]: 5.68

— paper PMC3514216, “SRC Homology 2 Domain Binding Sites in Insulin, IGF-1 and FGF receptor mediated signaling networks reveal an extensive potential interactome” (Cell Communication and Signaling : CCS, 2012)
